The source of these data is the DeepSol protein solubility set.

A short description of the series: soluble on expression in E. coli; label from the status in PepcDB or PDB records.
In the case of “MTTHSAHLLRRLNPYCAQALAGAATLCQTRAHAEITVEHWLLKLLEQGEGDITVIARRYEWDMDSLWQGLLSHLDTLPRTVQGKPQLSAALQQLIKNAWLDASLQENADAVRSVHLMAALIATPSLLVAEAAWPLLSLSTTQLQRLLPLLDNQSDERPEVQQAAALADSPVNLTDEAATVTSASGQPQLNDALQAALDKFTLDVTAKARANQIDPIFGRDSEIRQMIDILSRRRKNNPILVGEPGVGKTALVEGLALRIADGNVPDSLKTVSVRTLDLGLLQAGAGVKGEFEQRLKNVIEAVQQSPSPVLLFIDEAHTIIGAGNQAGGADAANLLKPALARGELRTIAATTWSEYKQYFERDAALERRFQMVKVDEPDDDTACLMLRGLKERYATHHGVHILDAAITAAVTLSRRFLTGRQLPDKAVDLLDTAGARVRMSIDTLPTALMEINAELAALAMEQQAIEQDLLLLPNVSSTRLPEIEQRRAALAVGQHTLEQQYKEEKRLTTLIIEARQDIANAAHLVALQEELVQIQGNAPLLSLDVDVRTVAAVIADWTGVPLGSLLKDEQTNLLSLENRLGERVIGQDAALGALAQRLRAAKTGLTSENGPLGVFLLVGPSGIGKTETALALADSLFGGEKSLITINLSEYQEAHTVSQLKGSPPGYVGYGQGGVLTEAVRKRPYSVVLLDEVEKAHRDVLNLFYQVFDRGFMRDGEGREIDFRNTVIVMTANLGSDHLMQLLDEQPDAPDSTLHELLRPILRDHFQPALLARFQTLIYRPLQVDALKRIVAIKLNQVAQRLHCHYGLSCQIEDSLTDTLVAACLLPDTGARNIDSLLNQQILPVLSQQLLSRMSEQQRTTSLTLGWHEEDGITLTFEGE”, the “soluble on expression in E. coli” value is recorded as “not soluble”.

“MTTLIISDLHLDPLRPVVTELFLRFLREQVSGADALYILGDLFEIWIGDDMPSEVADMVVAALRTHADAGTPLYFMPGNRDFLVGADYAARAGFRILPDPCVVDLYGEPTLLLHGDLLCTDDIAYQAFRAQTRDPEFIAQFLTQTLSARLAFAQQARLASHAHQSGLKQENDSTQFEKITDVVPADVAAMFACYGVNRMIHGHTHRPALHMLQVAECACTRVVLGDWYQQGSVLCVDADGLVLEQLLLP”: the “soluble on expression in E. coli” value is given as “not soluble”. Consider “MTTLNELKHGLEEAWESLAEGWHRLRERAAGALTRFKPGASVPAVPRRQEDFYLASPTWALLAGDVYEDDRKVVIRLEVPGMEKEDFNLELRGDLLIVQGEKRLERETSEGRYRVLQCAYGHFHRVIPLPAEVVADRVQASYRNGVLKIELPKAAARLPRNIEIPVRLEHHHHHH”, for which the “soluble on expression in E. coli” value is reported as “not soluble”. As to “MTTLNKENIQKEFKERLSEDELLNCMRCGFCLPTCPTYIQSGYKESHSPRGRIALMKAVVDGLIEPDEDVENTLNVCLGCRACEPVCPSGVNYGHLLEEARDIINQNKKFSMPVRAVRKVVFEELFPHQNRMRTLTGLIGFYQRSGLQTITHKTGIMKLFPETLATMDLVLPKVPKMKAMKDRPTFLPAESTKKKQVAFFTGCLMDTMFLETNNATMKLLQLAGCDIVIPKTQSCCGALHGHAGEKSGAKELAKRNIKAFEDLNIDYIITNAGGCGAYLVDYDYLLKDDPQWAGRAKQFVSKIKDITAILVELDFHKRNDLRLTPQIITYQDSCHLRNVMRTSSEPRMLLEAIQGATYREMKDADRCCGSAGIYNIVHSELSMEFLDYKMDRVHETDATTIVTANPGCLLQMKLGIEREGLSHKMRGIHIVDLLLEAIETNS”, the “soluble on expression in E. coli” value is on record as “not soluble”. Regarding “MTTQSTLQSVPALGTHPASGSNPSRAETREQLSKASYDLLVIGGGILGISTAWHAAQSGLRVAVVDAGDFAGATSSASSKLLHGGLRYLQTGAVKLVAENHFERRAVSRQVAPHLANPLTFYLPVYKGGPHGAAKLGAGVFAYSALSAFGDGVGHLLSPAKAAQDVPELRTDNLKAVAVYGDDQMNDARMALMTVRAAVESGAVVLNHAEVTGLRFTGGRVTGAELKDRLSGDEFGVNARLVLNATGPWVDHLRRMEDPAAAPSIRLSKGAHLVLKRTAPWKAALATPIDKYRITFALPWEDMLLLGTTDEEFEGDPADVAVNDKDITQILDEAAFSIRDQQLDRDLITYSFAGLRVLPGGPGDTAKAKRETVVTEGRGGMLSVAGGKWTTFRHIGRTVMKKLEALPGHPLGDDFEPIASLPKKLPLPGVANPRAVAHRLLVDGSAPGPRMAADTARHLATHYGSLAFDIARLANESPELARRVHPDAPEIWAQVVWARDNEWAETADDVLRRRTTLTIRGLATDDVRAQVQDVLDKKLEHHHHHH”, the “soluble on expression in E. coli” value is given as “not soluble”. Turning to “MTTSNIKALIPSELRKVWEFILDIENYDAWRSDLSKTEVVSDKQFIEYTKDGYPTTFTVTLVEPYRRWEFDMQNSNMSGHWIGVFTDKGNETEIDFTECVEAKKMLMKPFVKSYLKKQQAQFVADIMKNFSLEHHHHHH”, the “soluble on expression in E. coli” value was “soluble”.

For “MTTTEVKMFTFNSVAENTYILYDSTGEAALIDCGCMDGSEEQQLLRFVQEQQLTVKLLLNTHLHFDHAWGNGFAAKTFGLPVLTHRAEVEEMPSPSKQLAAFGMFGTMDEPPIQYIAPGDVLQLGESIIKVLFVPGHSPGHLAFYCPQAQAVFTGDALFAGDMGRTDLWGGSYELLKKSIRTELLPLPDDTVVYPGHGPTSTIAYERTNNPFLD”, the “soluble on expression in E. coli” value was “not soluble”.

With “MTTWLYAGVDGGGTGCRARIYQANGTPLGQGHGGRANLLLGVENVRQSVDNAIAQALKHSGLSPDDVSRLKVGLALASAEHRTAYDTFLALPHPYATQVLNTDALGACLAVNQGKDAGVVIAGTGSCGLAWQNQTITAYGGHEFPISDQGSGARLGLAALQHTHDVLQGWRAPSALSQSIDDFFCASAAHALAANTLDALQTFSQQAKPGDYAQFARHVFDCAQQDDAVSHALLAQTASEICLLLAAVARHASPRLSLMGSIGLHIRPWLPDEWQSQLAVPMGDALDGARLIACHDYALYSHPLLEHHHHHH”, the “soluble on expression in E. coli” value is listed as “not soluble”. In the case of “MTVEERSNTAKVDILGVDFDNTTMLQMVENIKTFFANQSTNNLFIVTANPEIVNYATTHQAYLELINQASYIVADGTGVVKASHRLKQPLAHRIPGIELMDECLKIAHVNHQKVFLLGATNEVVEAAQYALQQRYPNISFAHHHGYIDLEDETVVKRIKLFKPDYIFVGMGFPKQEEWIMTHENQFESTVMMGVGGSLEVFAGAKKRAPYIFRKLNIEWIYRALIDWKRIGRLKSIPIFMYKIAKAKRKIKKAK”, the “soluble on expression in E. coli” value is “not soluble”. Then “MTVGYGFSASGDYSQSKIRADHASVTEQSGIYAGEDGYQIKVRDNTDLKGGIITSSQSAEDKGKNLFQTATLTHSDIQNHSRYEGKSFGIGGSFDLNGGWDGTVTDKQGRPTDRISLAAGYGSDSDSQSSITKSGINTRNIHITDEAGQLARTGRTAKETEARIYTGIDTETADQHSGRLKNSFDKDAVAKEINLQREVTKEFGRNATQAVAAVADKLGNTQSYERYQEARTLLEAELQNTDSEAEKAAFRASLGQVNAYLAENQSRYDTWKEGGIGRSILHGAGRQSAMRRAGMSVRRQ”, with “not soluble”; and “MTVISSHWWRCISLNSKSNRCSSSSGNHLMMGGKKTCVLMRATFMVIATDYEFERRWCRRTGTIAGCHLISKQAEVGEMMCMIEL”, with “not soluble”. To “MTVNAKTSPSAGNTWRDLPAAQQPEYPDTEALRAVIADLESYPPLVFAGECDQLRARMAAVAKGEAFLLQGGDCAEAFDAVSADHIRNKLKTLLQMGAVLTYAASVPVVKVGRIAGQYSKPRSKPTETRDGVTLPTYRGDSVNGFDFTEAARIPDPERLKRMYHASASTLNLVRAFTTGGYADLRQVHAWNQDFVKSSPSGQRYEQLAREIDNALNFMRACGTDPAEFQTVEFFSSHEALLLDYESALTRVDSRTGQLYDVSGHMVWIGERTRQLDHAHIEFASRIRNPIGIKLGPSTTAEEALQYIERLDPEREPGRLTFIVRMGADKIRDKLPELVEKVTASGATVAWITDPMHGNTYEAASGHKTRRFDDVLDEVKGFFEVHKSLGTHPGGIHVELTGDDVTECVGGGDEIFVDDLHQRYETACDPRLNRSQSLDLAFLVAEMYRDQ” belongs “not soluble”; to “MTVPEEAQTLIGKHYRAPDHFLVGREKIREFAVAVKDDHPTHYSEPDAAAAGYPALVAPLTFLAIAGRRVQLEIFTKFNIPINIARVFHRDQKFRFHRPILANDKLYFDTYLDSVIESHGTVLAEIRSEVTDAEGKPVVTSVVTMLGEAAHHEADADATVAAIASILEHHHHHH”, “soluble”. Then “MTVSREVELEGHIIDSGMMQSCFGIIMDLGGSFSVQKFDIGRHKDEESYARMLVEADDEAQLQSIVHELHQHGVNPSDPKDATLVPAPDDQVVPHGFYSTTNHPLEHHHHHH”, with “not soluble”; and “MTVTNMTEWFAKGVEALHHDHVYLARACFEQAVTEQRSPLSSSYLALCQAKTRGTFSDAIASAREAVAADPANPALYHNLGCIYLLAGKRTEAIETFRQGLEHHHHHH”, with “not soluble”; and “MTVYHFVGIKGTGMSSLAQILHDMKHTVQGSDYEKRFFTQTALEKRNISILPFDKSNVKEGQVIIAGNAFPDTHEEIVAAKELNIPVHRYHHFLGDLMNQYTSVAVTGAHGKTSTTGLLAHVMQGAHPTSYLIGDGTGHGVENSKYFVFEACEYRRHFLSYNPDYAIMTNIDFDHPDYFTDINDVFSAFQEMALQVKKGIIACGDDEELQKIQAKVPVIFYGFGEDNDFQARNIQKRTDGTIFDVFVRNTYYDTFKITGYGNHSVLNALAVIALCHYENVDVEAVKHQLTTFEGVKRRFNEKPMGEQVIIDDYAHHPTEINATIEAARQKHPEREIVAVFQPHTFSRTEKFLDEFAESLSKADQVYLCDIFGSARENKGELTIEDLQKRIDGAELITDTTTDVLKKHKNGVLIFMGAGDIQKFEAAYVKEVQVAEK”, with “not soluble”. In the case of “MTYELCLEYGTYPLSRVDAYWGEDQNPPTFIQEDRLLCHKLETMNHLFHDLFVTIESQFHYVGFNMPEKRAQIRILYQEVATILKSKYKDYPIKIETFLL”, the “soluble on expression in E. coli” value is listed as “not soluble”. As to “MVALFPSSPAEDLLAEGPCVMTGKGLHQLLLDRWGYSYGLQLRRTQGKIFLQIMWKYLEQASFPMDEGEYFSHLNEVASYLVALGAAEAIAQTIRETREKPRLGKAVSIPIELGARASEWFPDLEHHHHHH”, the “soluble on expression in E. coli” value is given as “soluble”. For “MVAVPEGYESLLERPLYGHLATVRPDGTPQVNAMWFAWDGEVLRFTHTTKRQKYRNIKANPAVAMSVIDPDNPYRYLEVRGLVEDIVPDPTGAFYLKLNDRYDGPLTEPPADKADRVIIVVRPTAFSKQVA”, the “soluble on expression in E. coli” value is “soluble”. As to “MVAVSFGAAFRETLEGSGNPQDEFEKLEFEEAYWPELYTTRGPEDDEIYQPFIGPWDYETDLPELHETQGPEDNEVYQPFPGPCFP”, the “soluble on expression in E. coli” value is given as “not soluble”. For the sequence “MVCLQRICYEKIFLKKKIIATGTIWMSNMQQINNASVRPVSAYNTKHLQIPAIALLQSSPLPEQAIRTFSRALLTPTNHLFVNGRYIRTGLISGFDSRKLSFFQRIYLFLKSRFFTENKSVKISAVWAHDSWSNNYFHWFNDTLPRLFLLSKQIEDSVAVLPVELSKITFIVESLELLKIEHQWIDQKKSHRFESLSVLHTATLQPDINPLLQKQMRDAVFSAMKIDPQERPFRKIYISRAHARYRKIINEQELLPVLKKYGYDIIYPETYSFKEQVKLFAESNALISIHGAGHTNCMFMKQDAKVMEIRNTEWESQPLCFWGLANIFELKWEYITATRVSEVSNFNDVFIAPHIFEESLRTFENIKLEHHHHHH”, the “soluble on expression in E. coli” value is listed as “not soluble”.

For “MVDFYYLPGSSPCRSVIMTAKAVGVELNKKLLNLQAGEHLKPEFLKINPQHTIPTLVDNGFALWESRAIQVYLVEKYGKTDSLYPKCPKKRAVINQRLYFDMGTLYQSFANYYYPQVFAKAPADPEAFKKIEAAFEFLNTFLEGQDYAAGDSLTVADIALVATVSTFEVAKFEISKYANVNRWYENAKKVTPGWEENWAGCLEFKKYFE”, the “soluble on expression in E. coli” value is on record as “soluble”.
